Experimental data: patent US20230037911A1 (SHANGHAI HENLIUS BIOTECH, published 2023)

T1: recombinant human TIGIT extra cellular domain (ECD) protein (human, UniProt Q495A1 22-138)
T1 construct: Purchased protein; it begins with the signal peptide; also called h-TIGIT ECD; human TIGIT ECD
T1 sequence: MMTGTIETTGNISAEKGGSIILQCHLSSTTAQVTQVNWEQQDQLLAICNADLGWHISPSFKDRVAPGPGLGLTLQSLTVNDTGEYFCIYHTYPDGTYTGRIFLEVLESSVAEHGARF

T2: human TIGIT stably expressed on cells (Jurkat; 293T) (human, UniProt Q495A1 22-244)
T2 construct: the expression vector's insert is not described further; also called h-TIGIT; human TIGIT transfected Jurkat cells
T2 sequence: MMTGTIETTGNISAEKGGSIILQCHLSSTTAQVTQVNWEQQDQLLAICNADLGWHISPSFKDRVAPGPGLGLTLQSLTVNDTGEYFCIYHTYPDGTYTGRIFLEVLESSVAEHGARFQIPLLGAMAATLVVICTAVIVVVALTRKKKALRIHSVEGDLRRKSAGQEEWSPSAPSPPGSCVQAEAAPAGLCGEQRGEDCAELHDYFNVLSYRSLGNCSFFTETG


Tests used:
[1] = molecular target: T1, recombinant human TIGIT extra cellular …; assay: PVR blocking ELISA (PVR binding to h-TIGIT blocked by the clone); scatter of IC50 against EC50, nM per the legend
[2] = molecular target: T2, human TIGIT stably expressed on cells …; assay: whole cell binding on TIGIT stable cells (species not named in the legend, taken as human); scatter of EC50 against IC50, nM per the legend
[3] = molecular target: T1, recombinant human TIGIT extra cellular …; assay: ELISA, VHH in supernatant on h-TIGIT ECD coated plates
[4] = molecular target: T1, recombinant human TIGIT extra cellular …; assay: blocking ELISA, PVR as competitor

Binder | binding result [1] | binding result [2] | binding result [3] | inhibition of PVR binding to h-TIGIT [4] [%]
2A6 VHH (VHH, VHH in bacterial supernatant) VHH: QVQLVESGGGVVQPGRSLRLSCAASGPSFSLYPMGWFRQAPGKERESVAAISSDRRFTYYADSVKGRFTISRDNSKNTLYLQMNSLRAEDTAVYYCAARDSGSGYYSRAQWYDYWGQGTLVTVSS | binds | binds |  | 
2C5 VHH (VHH, VHH in bacterial supernatant) VHH: QVQLVESGGGVVQPGRSLRLSCAASGPSFSTYPMGWFRQAPGKERESVAAISSQGRFTYYADSVKGRFTISRDNSKNTLYLQMNSLRAEDTAVYYCAARDSGSGYYSRAQWYDYWGQGTLVTVSS | binds | binds |  | 
5B5 VHH (VHH, VHH in bacterial supernatant) VHH: QVQLVESGGGVVQPGRSLRLSCAASGPSFSSYPMGWFRQAPGKERESVAAISSDTRFTYYADSVKGRFTISRDNSKNTLYLQMNSLRAEDTAVYYCAARDSGSGYYSRAQWYDRWGQGTLVTVSS | binds | binds |  | 
5E8 VHH (VHH, VHH in bacterial supernatant) VHH: QVQLVESGGGVVQPGRSLRLSCAASGPSFSSYPMGWFRQAPGKERESVAAQSSDGRFTYYADSVKGRFTISRDNSKNTLYLQMNSLRAEDTAVYYCAARDSGSGYYSRAQWYDYWGQGTLVTVSS | binds | binds |  | 
5G10 VHH (VHH, VHH in bacterial supernatant) VHH: QVQLVESGGGVVQPGRSLRLSCAASGPRFSSYPMGWFRQAPGKERESVAAISSDGRFTYYADSVKGRFTISRDNSKNTLYLQMNSLRAEDTAVYYCAARDSGSGYYSRAQWYDGWGQGTLVTVSS | binds | binds |  | 
6B11 VHH (VHH, VHH in bacterial supernatant) VHH: QVQLVESGGGVVQPGRSLRLSCAASGPSFPSYPMGWFRQAPGKERESVAAISSRGRFTYYADSVKGRFTISRDNSKNTLYLQMNSLRAEDTAVYYCAARDSGSGYYSRLQWYDYWGQGTLVTVSS | binds | binds |  | 
4A11 VHH (VHH, VHH in bacterial supernatant) VHH: QVKLEESGGGEAQPGGSLRLSCTASGRPFSNYTMGWFRRAPGKEREFVGLAWPSPSTYVVDSVKGRFTISRDNAKNTIYLQMNSLKPEDTAIYYCAADYKSLTQSWLNAALDYWGQGTQVTVSS |  |  | binds | 
3G7 VHH (VHH, VHH in bacterial supernatant) VHH: QVQLVESGGGLVQAGDSLRLSCEASGRTLSTYTMGWFRRAPGKEREFVGLAWPSPSTYVVDSVKGRFTISRDNAKNTIYLQMNSLKPEDTAIYYCAADYKSLTQSWLNAALDYWGQGTQVTVSS |  |  |  | > 90
4B5 VHH (VHH, VHH in bacterial supernatant) VHH: QVKLEESGGRSVLAGGSLRLRCAGTPRTFSTFHIGWFRQAPGKEREFVAAFNWSGGRTYYADSVKGRFTISRNNGKNMVYLQMTSLTPEDTGLYYCAAARDRGLHDGTTSDSYLEGSHEYEYWGQGTQVTVSS |  |  | binds | 
4C5 VHH (VHH, VHH in bacterial supernatant) VHH: QVQLVDSGGGLVQAGGSLRLSCAVSGRSVSTYFVGWFRQAPGKEREFVAAIDRGSTVTRYDDSVKGRFTISRDNAKDTVYLQMNSLKPEDTAVYYCAAKAITRNFIATNDYDYWGQGTQVTVSS |  |  | binds | 
4D5 VHH (VHH, VHH in bacterial supernatant) VHH: VDSGGGAVKAGDSLRLVCSAPGRTHGRAFNEYAMAWFRQGPGKERESVAAISSDGRFTYYAASVKGRFTISKDNAKSAAFLQMNSLKPEDTAVYYCAARDSGSGYYSRAQWYDYWGQGTQVTVSS |  |  | binds | 
4D11 VHH (VHH, VHH in bacterial supernatant) VHH: QVQLQESGGGLVQPGGSLRLSCAASGSISSINAMGWYRLAPGKHREFVADITNSGSTNYAASVKGRFNISRDNAKDTVYLQMNSLKFEDTAVYYCTARRSTWYISSGRGTQVTVSS |  |  | binds | 

Second part, the binder after the results:

binding result [1] | binding result [2] | binding result [3] | inhibition of PVR binding to h-TIGIT [4] [%] | Binder
binds | binds |  |  | 1A10 VHH (VHH, VHH in bacterial supernatant) VHH: QVQLVESGGGVVQPGRSLRLSCAASGNSFSSYPMGWFRQAPGKERESVAAISSDGRFSYYADSVKGRFTISRDNSKNTLYLQMNSLRAEDTAVYYCACRDSGSGYYSRAQWYDYWGQGTLVTVSS
binds | binds |  |  | 1C7 VHH (VHH, VHH in bacterial supernatant) VHH: QVQLVESGGGVVQPGRSLRLSCAASGPSFSSYPMGWFRQAPGKERESVAAISSRGRFTYYADSVKGRFTISRDNSKNTLYLQMNSLRAEDTAVYYCAARGSGSGYYSRAQWYDYWGQGTLVTVSS
binds | binds |  |  | 1D11 VHH (VHH, VHH in bacterial supernatant) VHH: QVQLVESGGGVVQPGRSLRLSCAASGPSFSSSPMGWFRQAPGKERESVAAISSMGRFTYYADSVKGRFTISRDNSKNTLYLQMNSLRAEDTAVYYCAARDSGSGYYSRAQWYDYWGQGTLVTVSS
binds | binds |  |  | 2A5 VHH (VHH, VHH in bacterial supernatant) VHH: QVQLVESGGGVVQPGRSLRLSCAASGPSFSSYPMGWFRQAPGKERESVAAISSVGRFTYYADSVKGRFTISRDNSKNTLYLQMNSLRAEDTAVYYCAARDSGSGYYSRWQWYDYWGQGTLVTVSS
binds | binds |  |  | 2D5 VHH (VHH, VHH in bacterial supernatant) VHH: QVQLVESGGGVVQPGRSLRLSCAASGPSFSSSPMGWFRQAPGKERESVAAISWDGRFTYYADSVKGRFTISRDNSKNTLYLQMNSLRAEDTAVYYCAARDSGSGYYSRAQWYVYWGQGTLVTVSS
binds | binds |  |  | 6D8 VHH (VHH, VHH in bacterial supernatant) VHH: QVQLVESGGGVVQPGRSLRLSCAASGPSFSSKPMGWFRQAPGKERESVAARSSDGRFTYYADSVKGRFTISRDNSKNTLYLQMNSLRAEDTAVYYCAARDSGSGRYSRAQWYDYWGQGTLVTVSS
binds | binds |  |  | 6D12 VHH (VHH, VHH in bacterial supernatant) VHH: QVQLVESGGGVVQPGRSLRLSCAASGPSFSTYPMGWFRQAPGKERESVAAISSDGVFTYYADSVKGRFTISRDNSKNTLYLQMNSLRAEDTAVYYCAARDSGSGYYSREQWYDYWGQGTLVTVSS
binds | binds |  |  | 6E9 VHH (VHH, VHH in bacterial supernatant) VHH: QVQLVESGGGVVQPGRSLRLSCAASGPSRSSYPMGWFRQAPGKERESVAAISSDGKFTYYADSVKGRFTISRDNSKNTLYLQMNSLRAEDTAVYYCAARDSGSGYYSRANWYDYWGQGTLVTVSS
binds | binds |  |  | 7B11 VHH (VHH, VHH in bacterial supernatant) VHH: QVQLVESGGGVVQPGRSLRLSCAASGPSFLIYPMGWFRQAPGKERESVAAISSDGRFWYYADSVKGRFTISRDNSKNTLYLQMNSLRAEDTAVYYCAARDSGSGYYSRVQWYDYWGQGTLVTVSS
 |  | binds |  | 12H7 VHH (VHH, VHH in bacterial supernatant) VHH: QVQLVDSGGGLVQAGGSLRLSCKVSGNFLSVSDMSWYRQAPGMERDVVATVTEHGRTTYTDSVKGRFTISRDNAEHTTYLEMNNLKPEDTAVYFCKASDVFTDAGAHEAVLIRDYWGQGTQVTVSS
 |  | binds |  | 3H7 VHH (VHH, VHH in bacterial supernatant) VHH: QVKLEESGGGLVQAGGSLRLSCAASGSILSAGVMRWYRQAPGKQRELVASIALDGSTGYYIDSVKGRFTISRDNAKNIVYLDMRSLEPADTAVYLCNANIRTDMRSAPFDHWGHGTQVTVSS
 |  | binds |  | 4C6 VHH (VHH, VHH in bacterial supernatant) VHH: QVQLVESGGGLVQAGGSLRLACAASGRTFSSYPMGWFRQGPGKERESVAAISSDGRFTYYAASVKGRFTISKDNAKSAAFLQMNSLKPEDTAVYRCAVDPTGWGTIEADFRSWGQGTQVTVSS
 |  | binds |  | 4E5 VHH (VHH, VHH in bacterial supernatant) VHH: QVQLVDSGGGVVEVGASLTLSCETSGLTSSDIAVGWFRQGPGKERESVAAISSDGRFTYYAASVKGRFTISKDNAKSAAFLQMNSLKPEDTAVYYCAARDSGSGYYSRAQWYDYWGQGTQVTVSS
 |  | binds |  | 4H6 VHH (VHH, VHH in bacterial supernatant) VHH: QVQLVESGGGLATAGASLILSCAASGTIFRLNRMGWFRQAPGKERERVAATIWSGRRTHYADSVKGRFTISTDNAKKTVYLRMSSLKPEDTAVYYCNYRRITPWEASGNYWGQGTQVTVSS
 |  | binds |  | 4H9 VHH (VHH, VHH in bacterial supernatant) VHH: QVQLVESGGGAVQAGGSLRLSCTASGPIARSRSTGMGWFRQGPGKERESVAAISSDGRFTYYAASVKGRFTISKDNAKSAAFLQMNSLKPEDTAVYYCAARDSGSGYYSRAQWYDYWGQGTQVTVSS
